# Results from the supplement of paper PMC9112550, “Optimization of the antimicrobial peptide Bac7 by deep mutational scanning” (BMC Biology, 2022).
# Test system: Escherichia coli TOP10
# Assay: shrunken log2 fold change of peptide-encoding DNA abundance (4.5 h post-induction vs induction); higher = less antimicrobial activity (less host growth inhibition)
# Details: time post-induction: 4.5 h; library: site-saturation at positions 5, 18, 19, 20
# 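Note: peptides expressed intracellularly from a pBAD plasmid library in pooled LB shake-flask culture, induced with 0.3% L-arabinose, DNA abundance read by NGS, three biological replicates, DESeq2 with apeglm shrinkage.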
row,Sequence,shrunken log2 fold change
1,RRIRMRPPRLPRPRPRPTVEPRP,3.68
2,RRIRCRPPRLPRPRPRPPCKPRP,-0.189
3,RRIRLRPPRLPRPRPRPSTQPRP,-0.337
4,RRIRGRPPRLPRPRPRPHAGPRP,1.06
5,RRIRLRPPRLPRPRPRPRERPRP,0.612
6,RRIRKRPPRLPRPRPRPEIPPRP,-0.00514
7,RRIRVRPPRLPRPRPRPNPPPRP,0.231
8,RRIRRRPPRLPRPRPRPGHVPRP,-0.00681
9,RRIRTRPPRLPRPRPRPYEMPRP,-0.482
10,RRIRYRPPRLPRPRPRPYIRPRP,-1.92e-05
11,RRIRPRPPRLPRPRPRPNTEPRP,-0.124
12,RRIRERPPRLPRPRPRPWDFPRP,0.0275
13,RRIRARPPRLPRPRPRPFAWPRP,0.122
14,RRIRRRPPRLPRPRPRPWGVPRP,0.405
15,RRIRTRPPRLPRPRPRPISTPRP,-0.504
16,RRIRQRPPRLPRPRPRPLGHPRP,0.0124
17,RRIRWRPPRLPRPRPRPFGRPRP,-0.0754
18,RRIRIRPPRLPRPRPRPMRPPRP,0.194
19,RRIRYRPPRLPRPRPRPTYIPRP,-0.58
20,RRIRPRPPRLPRPRPRPRPNPRP,0.505
21,RRIRKRPPRLPRPRPRPDHTPRP,0.0503
22,RRIRNRPPRLPRPRPRPCPSPRP,-0.0371
23,RRIRERPPRLPRPRPRPTTFPRP,-0.367
24,RRIRMRPPRLPRPRPRPVREPRP,1.19
25,RRIRGRPPRLPRPRPRPAPKPRP,1.18

row,Sequence,shrunken log2 fold change
1,RRIRLRPPRLPRPRPRPTYPPRP,0.0515
2,RRIRERPPRLPRPRPRPGCHPRP,-0.0878
3,RRIRQRPPRLPRPRPRPDGWPRP,0.228
4,RRIRWRPPRLPRPRPRPCMAPRP,0.312
5,RRIRTRPPRLPRPRPRPGYKPRP,-0.275
6,RRIRARPPRLPRPRPRPNNHPRP,-0.381
7,RRIRARPPRLPRPRPRPEWKPRP,0.0235
8,RRIRCRPPRLPRPRPRPLRDPRP,0.948
9,RRIRWRPPRLPRPRPRPTSYPRP,-0.103
10,RRIRCRPPRLPRPRPRPLVTPRP,-0.195
11,RRIRGRPPRLPRPRPRPPAFPRP,1.09
12,RRIRDRPPRLPRPRPRPIPSPRP,0.0554
13,RRIRSRPPRLPRPRPRPMKCPRP,0.235
14,RRIRARPPRLPRPRPRPWRKPRP,0.0387
15,RRIRVRPPRLPRPRPRPPHQPRP,0.0363
16,RRIRWRPPRLPRPRPRPHELPRP,-0.0349
17,RRIRARPPRLPRPRPRPYLSPRP,-0.451
18,RRIRIRPPRLPRPRPRPMPQPRP,-0.133
19,RRIRSRPPRLPRPRPRPKLMPRP,-0.125
20,RRIRFRPPRLPRPRPRPALCPRP,-0.088
21,RRIRSRPPRLPRPRPRPDVDPRP,0.0112
22,RRIRPRPPRLPRPRPRPKWLPRP,0.198
23,RRIRPRPPRLPRPRPRPEYPPRP,0.045
24,RRIRIRPPRLPRPRPRPYTWPRP,-0.891
25,RRIRDRPPRLPRPRPRPQYKPRP,-0.121

row,Sequence,shrunken log2 fold change
1,RRIRERPPRLPRPRPRPYGWPRP,-0.135
2,RRIRRRPPRLPRPRPRPKTWPRP,-0.0361
3,RRIRKRPPRLPRPRPRPKPWPRP,0.526
4,RRIRWRPPRLPRPRPRPCLFPRP,-0.00127
5,RRIRWRPPRLPRPRPRPCSSPRP,-0.259
6,RRIRARPPRLPRPRPRPGQCPRP,0.203
7,RRIRGRPPRLPRPRPRPQQIPRP,0.457
8,RRIRYRPPRLPRPRPRPKSIPRP,-0.0776
9,RRIRWRPPRLPRPRPRPPCHPRP,0.0912
10,RRIRWRPPRLPRPRPRPRKNPRP,0.0168
11,RRIRGRPPRLPRPRPRPEDTPRP,1.58
12,RRIRARPPRLPRPRPRPLDSPRP,0.166
13,RRIRKRPPRLPRPRPRPCPHPRP,0.0793
14,RRIRNRPPRLPRPRPRPHIPPRP,-0.793
15,RRIRMRPPRLPRPRPRPKYPPRP,-0.00805
16,RRIRYRPPRLPRPRPRPMMWPRP,0.00408
17,RRIRIRPPRLPRPRPRPWNWPRP,0.0631
18,RRIRCRPPRLPRPRPRPCMMPRP,-0.914
19,RRIRHRPPRLPRPRPRPEEAPRP,0.015
20,RRIRHRPPRLPRPRPRPNWYPRP,-0.928
21,RRIRARPPRLPRPRPRPKRYPRP,0.159
22,RRIRRRPPRLPRPRPRPLNVPRP,-0.0701
23,RRIRSRPPRLPRPRPRPKHEPRP,0.076
24,RRIRYRPPRLPRPRPRPQHAPRP,-0.313
25,RRIRCRPPRLPRPRPRPPCVPRP,0.0597

row,Sequence,shrunken log2 fold change
1,RRIRHRPPRLPRPRPRPSYCPRP,0.00287
2,RRIRLRPPRLPRPRPRPHWKPRP,0.0019
3,RRIRDRPPRLPRPRPRPSWAPRP,-0.102
4,RRIRWRPPRLPRPRPRPGMGPRP,0.525
5,RRIRSRPPRLPRPRPRPTYCPRP,-0.112
6,RRIRTRPPRLPRPRPRPSFPPRP,-0.261
7,RRIRARPPRLPRPRPRPSWIPRP,-0.0935
8,RRIRGRPPRLPRPRPRPWSHPRP,-0.155
9,RRIRYRPPRLPRPRPRPYQFPRP,-0.183
10,RRIRQRPPRLPRPRPRPAPKPRP,0.148
11,RRIRIRPPRLPRPRPRPAPVPRP,0.171
12,RRIRQRPPRLPRPRPRPFMYPRP,0.000979
13,RRIRGRPPRLPRPRPRPPNMPRP,0.0204
14,RRIRERPPRLPRPRPRPWRGPRP,0.166
15,RRIRARPPRLPRPRPRPTWSPRP,0.67
16,RRIRHRPPRLPRPRPRPQTQPRP,-0.145
17,RRIRDRPPRLPRPRPRPTLSPRP,0.262
18,RRIRCRPPRLPRPRPRPELEPRP,0.285
19,RRIRMRPPRLPRPRPRPLLLPRP,-0.32
20,RRIRGRPPRLPRPRPRPYEFPRP,-0.0878
21,RRIRARPPRLPRPRPRPYNDPRP,-1.28
22,RRIRCRPPRLPRPRPRPCQPPRP,-0.149
23,RRIRFRPPRLPRPRPRPHTWPRP,-0.415
24,RRIRWRPPRLPRPRPRPGLWPRP,1.16
25,RRIRNRPPRLPRPRPRPQDNPRP,0.0553

row,Sequence,shrunken log2 fold change
1,RRIRDRPPRLPRPRPRPTTSPRP,0.335
2,RRIRPRPPRLPRPRPRPSAFPRP,0.191
3,RRIRNRPPRLPRPRPRPWCLPRP,-0.472
4,RRIRERPPRLPRPRPRPGWKPRP,0.015
5,RRIRQRPPRLPRPRPRPGVMPRP,-0.0819
6,RRIRRRPPRLPRPRPRPYIMPRP,-0.733
7,RRIRPRPPRLPRPRPRPTQTPRP,0.147
8,RRIRMRPPRLPRPRPRPYHFPRP,-0.16
9,RRIRRRPPRLPRPRPRPMSYPRP,-0.0379
10,RRIRMRPPRLPRPRPRPTVIPRP,-0.271
11,RRIRSRPPRLPRPRPRPHYLPRP,-0.403
12,RRIRIRPPRLPRPRPRPHGSPRP,-0.261
13,RRIRTRPPRLPRPRPRPSYTPRP,-0.761
14,RRIRKRPPRLPRPRPRPSMTPRP,-0.0765
15,RRIRERPPRLPRPRPRPFIGPRP,-0.0528
16,RRIRFRPPRLPRPRPRPHCGPRP,-0.308
17,RRIRVRPPRLPRPRPRPVQFPRP,-0.488
18,RRIRERPPRLPRPRPRPHINPRP,-0.713
19,RRIRQRPPRLPRPRPRPTTWPRP,-0.0695
20,RRIRYRPPRLPRPRPRPVQWPRP,-0.126
21,RRIRPRPPRLPRPRPRPYIFPRP,-0.984
22,RRIRHRPPRLPRPRPRPAPQPRP,0.588
23,RRIRYRPPRLPRPRPRPHTHPRP,-1.17
24,RRIRGRPPRLPRPRPRPWMKPRP,0.0546
25,RRIRDRPPRLPRPRPRPNDFPRP,0.239
